In article PMC4272012 (Nature methods, 2014):

Molecular target: GFPuv (Aequorea victoria, UniProt P42212, 15N-labeled)

Binder | binding result
LaG-43 (VHH) VHH: DVQLVESGGGLVQPGGSLRLSCEASGGAFSTVAMGWFRQAPGKEREFVGAITWTAGSTYYADSAKGRFTISRDNAKNTVHLQMNSLKPEDTAVYYCAQRVRGFFGPLRTTPSWYEYWGQGTQVTVS | binds
LaG-14 (VHH) VHH: QVQLVESGGGLVQAGGSLRLSCAASGRTYSISAMGWFRQAPGKEREFVAGISRSGGTTYYADPVKGRFTISRDNAKNTVYLQMNSLKPEDTAVYYCAARARGWTTFPAREIEYDYWGQGTQVTV | binds
LaG-27 (VHH) VHH: DVQLVESGGGLVQAGGSLRLSCTASGLTISTYNIGWFRQAPGKEREFVGIIIRNGDTTYYADSVKGRFTISRDNAKNTVYLQMNSVKPADAAVYSCGATVRAGAAAEQYNSYIFRGQGTQVTV | binds
LaG-9 (VHH) VHH: DVQLVESGGGLVQAGGSLRLSCAASGRTFSTSAMGWFRQAPGKEREFVARITWSAGYTAYSDSVKGRFTISRDKAKNTVYLQMNSLKPEDTAVYYCASRSAGYSSSLTRREDYAYWGQGTQVTVS | binds
LaG-16 (VHH) VHH: QVQLVESGGRLVQAGDSLRLSCAASGRTFSTSAMAWFRQAPGREREFVAAITWTVGNTILGDSVKGRFTISRDRAKNTVDLQMDNLEPEDTAVYYCSARSRGYVLSVLRSVDSYDYWGQGTQVTVS | binds
LaG-19 (VHH) VHH: QVQLVESGGGLVQAGGSLRLSCAASGPTGAMAWFRQAPGKEREFVGGISRSGTDTYYVDSVKGRFTIDRDNAKNTVYLQMNSLKPEDTAVYYCAARRSQILFTSRTDYEFWGQGTQVTV | binds

Now from value to binder:

binding result | Binder
binds | LaG-41 (VHH) VHH: DVQLVESGGGLVQAGGSLRLSCAASGPTGAMAWFRQAPGKEREFVGGISGSETDTYYVDSVKGRFTVDRDNVKNTVYLQMNSLKPEDTAVYYCAARRRITLFTSRTDYDFWGRGTQVTV
binds | LaG-2 (VHH) VHH: QVQLVESGGGLVQAGGSLRLSCAASGRTFSNYAMGWFRQAPGKEREFVAAISWTGVSTYYADSVKGRFTISRDNDKNTVYVQMNSLIPEDTAIYYCAAVRARSFSDTYSRVNEYDYWGQGTQVTV
binds | LaG-17 (VHH) VHH: DVQLVESGGGLVQAGGSLRLSCAASGRTISMAAMSWFRQAPGKEREFVAGISRSAGSAVHADSVKGRFTISRDNTKNTLYLQMNSLKAEDTAVYYCAVRTSGFFGSIPRTGTAFDYWGQGTQVTVS
binds | LaG-21 (VHH) VHH: QVQLVESGGGLVQAGGSLRLSCAASGPTGAMAWFRQAPGMEREFVGGISGSETDTYYADFVKGRLTVDRDNVKNTVDLQMNSLKPEDTAVYYCAARRRVTLFTSRADYDFWGQGTQVTVS
binds | LaG-26 (VHH) VHH: QVQLVESGGGLVQAGASMRLSCAASGITFSLYHWVWFRQAAGREHEFVAGIIRSGGETLSADSVKDRFIISRDDAKNTLYLQMNMLQPEDTATYYCAATHRADWYSSAFREYIFRGQGTQVTVS
